Experimental findings from PMC7532196 are described below.

Common to all, as to assay: EMSA
Conditions in all cases: EMSA: 30 ng probe in 20 ul, 10 mM Tris-HCl pH 7.4, 50 mM KCl, 5 mM MgCl2, 10% glycerol, room temperature 30 min, 6% PAGE

For series [1], the target named is T1, PcaQ (Pseudomonas savastanoi pv. phaseolicola 1448A (P. syringae)) (UniProt Q48JW3).
T1 sequence: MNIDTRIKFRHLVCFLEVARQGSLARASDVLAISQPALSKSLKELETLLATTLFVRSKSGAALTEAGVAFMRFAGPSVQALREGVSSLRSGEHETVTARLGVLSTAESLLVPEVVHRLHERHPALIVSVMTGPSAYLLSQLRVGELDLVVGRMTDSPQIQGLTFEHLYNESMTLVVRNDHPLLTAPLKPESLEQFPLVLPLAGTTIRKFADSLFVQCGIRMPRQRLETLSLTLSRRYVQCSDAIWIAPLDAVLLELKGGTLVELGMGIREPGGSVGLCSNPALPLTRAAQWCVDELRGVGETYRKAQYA

Series [2] deals with T2, MetR (Pseudomonas savastanoi pv. phaseolicola 1448A (P. syringae)) (UniProt Q48EZ0).
T2 sequence: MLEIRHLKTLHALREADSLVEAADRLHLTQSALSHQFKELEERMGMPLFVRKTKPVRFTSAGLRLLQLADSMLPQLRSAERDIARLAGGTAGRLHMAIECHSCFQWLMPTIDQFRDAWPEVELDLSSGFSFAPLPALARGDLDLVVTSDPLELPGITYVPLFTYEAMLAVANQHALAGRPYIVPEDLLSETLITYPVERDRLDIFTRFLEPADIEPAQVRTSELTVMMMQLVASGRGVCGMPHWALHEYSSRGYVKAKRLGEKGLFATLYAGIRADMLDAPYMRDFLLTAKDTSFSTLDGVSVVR

Series [3] concerns the target T3, PSPPH_3297 (Pseudomonas savastanoi pv. phaseolicola 1448A (P. syringae)) (UniProt Q48GM7).
T3 sequence: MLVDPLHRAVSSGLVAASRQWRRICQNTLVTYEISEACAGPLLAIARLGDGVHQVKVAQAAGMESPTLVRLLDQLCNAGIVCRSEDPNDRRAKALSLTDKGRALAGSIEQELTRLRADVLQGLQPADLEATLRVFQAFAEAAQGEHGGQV

As for “ACAATTAGTTGAATAATTTCCTTGGATATGAGGAAGGCGGGCTACAGGTGAACGTATAAAAAATCATGGTTTTAGTTATGCATAACCATGAAAATAAAGGAATTTTTATTAAATGTTGGTATTAATCAAAGGCACGTTTAATCACGCCGTCTA (double strand) [katB promoter]”, the binding result in series [1] is reported as “binds”. “CATAGGGGTTGCCAAATGTGTCGAATGCCCCATAAGGTAGCGCTGTCTCATGGAAGGTGACAATGCTTTAT (double strand) [gntR negative control]”: the binding result in series [2] is “no binding”.

With “GATGGGTGTTCGGTGATGACTATATGACATCACGGAACCGACTTTAACAGATGAAAAAAATTCAATTACAGGCGAGGTACAGGTTGATCGGCCGCAGACGGCTACTTTTTAAGCGCTATCGGTCGCGCAGCCCCATAAGATAAAGGGCCTGCTCATTTGTATGCA (double strand) [PSPPH_4247 promoter]”, in series [2], the binding result is “binds”. Regarding “GGTGCGGCATATCCCGTAGGCTCTGTCATTAAAAATGGCACAATTCTACTAGGCCGTCATTGCCTCCAACATGAATGATTTTCATGCAAAAGCCGCAGCACCACCAAAACCGTTCCGGTTTGCTATCATCCCGTTCTTTAAAGTA (double strand) [PSPPH_2621 promoter]”, in series [2], the binding result was “binds”.

On to “GTACCTGCCAGAATGTTGAGGGTGATATTGATCCATAACCTTAGCCTCCTACGCCTCTTTAGCTGGACAGCAAAAATTACCGAATTAGCTAAACATTAGGAATAATTCTAGCATTAGCTGTTCAGCTAACAAAGGCCTAAAAG (double strand) [PSPPH_0985 promoter]”, for which the binding entry in series [1] is “binds”.

Turning to “TCAAGAATTACAGTTGTGCCTTGCGTCATATGTGATCTGCTTATATGTATATGAAAAAAACTCATTATGAGTCAGTCTTGTATAACGTATTTAATACGGCCCTTTAATCAAACTACAAACACTTTTTTCAGGGGATTTCTGTGAA (double strand) [PSPPH_1024 promoter]”, the binding entry in series [2] is “binds”. As to “TCTACGCCCCCTCAAAAAACCCTTTCGGGCGTCCCTGCAACCCAAAAAGCCCCACTGGGCAGTTACGGGTTGACTGTAAGAACTTGTTACGAGATATTAGTTAGCATACTACTAATATCCTCCCTAACAATATTGTTCCTAACTAAATTGTTCACGACTCAG (double strand) [PSPPH_3297 promoter]”, the binding entry in series [3] is listed as “binds”.
